Source: PMC8456781, “Myosin-X and talin modulate integrin activity at filopodia tips” (Cell Reports, 2021)
Where no end group is shown, it is not given here.

B2: His-tagged MYO10^FERM (recombinant MYO10 MyTH4/FERM domain) (domain or fragment)
chain: TPTQQLIQDIKENCLNSDVVEQIYKRNPILRYTHHPLHSPLLPLPYGDINLNLLKDKGYTTLQDEAIKIFNSLQQLESMSDPIPIIQGILQTGHDLRPLRDELYCQLIKQTNKVPHPGSVGNLYSWQILTCLSCTFLPSRGILKYLKFHLKRIREQFPGSEMEKYALFTYESLKKTKCREFVPSRDEIEALIHRQEMTSTVYCHGGGSCKITINSHTTAGEVVEKLIRGLAMEDSRNMFALFEYNGHVDKAIESRTVVADVLAKFEKLAATSEVGDLPWKFYFKLYCFLDTDNVPKDSVEFAFMFEQAHEAVIHGHHPAPEENLQVLAALRLQYLQGDYTLHAAIPPLEEVYSLQRLKARISQSTKTFTPCERLEKRRTSFLEGTLRRSFRTGSVVRQKVEEEQMLDMWIKEEVSSARASIIDKWRKFQGMNQEQAMAKYMALIKEWPGYGSTLFDVECKEGGFPQELWLGVSADAVSVYKRGEGRPLEVFQYEHILSFGAPLANTYKIVVDERELLFETSEVVDVAKLMKAYISMIVKKRYSTTRSASSQGSSR
modifications: RED-tris-NTA dye on the His tag (Monolith His-Tag Labeling Kit)

Columns and labels:
[1] = target: T1, ITGA5 tail peptide (Homo sapiens); experiment: MST
T1 chain: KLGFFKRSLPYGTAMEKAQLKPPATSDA

[2] = target: B2; experiment: MST
[3] = target: T2, His-tagged MYO10^FERM (recombinant MYO10 MyTH4/FERM domain) (UniProt Q9HD67 1504-2058, RED-tris-NTA dye on the His tag (Monolith His-Tag Labeling Kit)); experiment: MST; His-tagged recombinant FERM domains labelled with RED-tris-NTA at 20 nM, integrin tail peptides at increasing concentration; three independent experiments pooled; conditions: both partners purified
T2 construct: Vector pET151; also called recombinant MYO10^FERM; MYO10 FERM domain; source: E. coli BL-21(DE3), purified (Protino Ni-TED column)
T2 sequence (looked up): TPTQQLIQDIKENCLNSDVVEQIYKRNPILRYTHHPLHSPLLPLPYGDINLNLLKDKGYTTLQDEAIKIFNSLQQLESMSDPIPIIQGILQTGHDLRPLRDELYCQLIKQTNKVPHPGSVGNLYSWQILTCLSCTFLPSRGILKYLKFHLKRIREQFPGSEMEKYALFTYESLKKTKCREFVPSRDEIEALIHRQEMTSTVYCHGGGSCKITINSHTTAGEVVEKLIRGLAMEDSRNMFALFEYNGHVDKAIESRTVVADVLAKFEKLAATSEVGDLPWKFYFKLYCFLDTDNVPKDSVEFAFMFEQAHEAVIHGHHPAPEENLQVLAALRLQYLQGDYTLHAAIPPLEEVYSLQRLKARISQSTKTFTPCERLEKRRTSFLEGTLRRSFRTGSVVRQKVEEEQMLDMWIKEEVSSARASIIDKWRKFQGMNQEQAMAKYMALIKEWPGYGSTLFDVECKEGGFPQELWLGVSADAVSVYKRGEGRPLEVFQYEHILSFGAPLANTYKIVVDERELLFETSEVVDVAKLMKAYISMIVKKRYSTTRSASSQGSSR

[4] = target: T3, His-TLN1^FERM (recombinant talin-FERM domain) (UniProt P26039 86-403, RED-tris-NTA dye on the His tag (Monolith His-Tag Labeling Kit)); experiment: as above; conditions: both partners purified
T3 construct: Talin-1 (TLN1) FERM domain; source: E. coli BL-21(DE3), purified (Protino Ni-TED column)

B1: His-TLN1^FERM (recombinant talin-FERM domain) (domain or fragment)
chain: RPLKIRMLDGTVKTIMVDDSKTVTDMLMTICARIGITNHDEYSLVRELMEEKKDEGTGTLRKDKTLLRDEKKMEKLKQKLHTDDELNWLDHGRTLREQGVEEHETLLLRRKFFYSDQNVDSRDPVQLNLLYVQARDDILNGSHPVSFDKACEFAGFQCQIQFGPHNEQKHKAGFLDLKDFLPKEYVKQKGERKIFQAHKNCGQMSEIEAKVRYVKLARSLKTYGVSFFLVKEKMKGKNKLVPRLLGITKECVMRVDEKTKEVIQEWSLTNIKRWAASPKSFTLDFGDYQDGYYSVQTTEGEQIAQLIAGYIDIILKKK
modifications: RED-tris-NTA dye on the His tag (Monolith His-Tag Labeling Kit)
With B1 as the binder, how does the Kd [1] read?
Its Kd is 557 µM.

For B2, which Kd [1] is on record?
The Kd was 18.3 µM.

B3: conserved region of the α2-integrin tail, peptide (peptide)
peptide: WKLGFFKRKYEKM
modifications: also: biotinylated, position not given here
notes: Integrin alpha-2 (ITGA2), conserved membrane-proximal region of the cytoplasmic tail; also called ITGA2^WT; ITGA2; source: synthetic peptide (custom, LifeTein)
Which results are given for B3?
Kd [2]: 15.8 µM; binding result [3]: binds

B4: wild-type β1-integrin tail peptide (peptide)
peptide: KLLMIIHDRREFAKFEKEKMNAKWDTGENPIYKSAVTTVVNPKYEGK
modifications: also: biotinylated, position not given here
notes: Integrin beta-1 (ITGB1) cytoplasmic tail; also called β-tail peptide; integrin β tail; source: synthetic peptide (custom, LifeTein)
B4 was tested. Which Kd [3] did it give?
The Kd was 25.1 µM.

And the Kd [4]?
Its Kd is 4.7 µM.
